Target: RNAP β' subunit with 6his tag (rpoC-6his), in purified δ-containing RNAP (B. subtilis, UniProt P37871 1-1199)
Assay: cross-linking

Sequence of RNAP β' subunit with 6his tag (rpoC-6his), in purified δ-containing RNAP (P37871 whole entry, stated change not applied): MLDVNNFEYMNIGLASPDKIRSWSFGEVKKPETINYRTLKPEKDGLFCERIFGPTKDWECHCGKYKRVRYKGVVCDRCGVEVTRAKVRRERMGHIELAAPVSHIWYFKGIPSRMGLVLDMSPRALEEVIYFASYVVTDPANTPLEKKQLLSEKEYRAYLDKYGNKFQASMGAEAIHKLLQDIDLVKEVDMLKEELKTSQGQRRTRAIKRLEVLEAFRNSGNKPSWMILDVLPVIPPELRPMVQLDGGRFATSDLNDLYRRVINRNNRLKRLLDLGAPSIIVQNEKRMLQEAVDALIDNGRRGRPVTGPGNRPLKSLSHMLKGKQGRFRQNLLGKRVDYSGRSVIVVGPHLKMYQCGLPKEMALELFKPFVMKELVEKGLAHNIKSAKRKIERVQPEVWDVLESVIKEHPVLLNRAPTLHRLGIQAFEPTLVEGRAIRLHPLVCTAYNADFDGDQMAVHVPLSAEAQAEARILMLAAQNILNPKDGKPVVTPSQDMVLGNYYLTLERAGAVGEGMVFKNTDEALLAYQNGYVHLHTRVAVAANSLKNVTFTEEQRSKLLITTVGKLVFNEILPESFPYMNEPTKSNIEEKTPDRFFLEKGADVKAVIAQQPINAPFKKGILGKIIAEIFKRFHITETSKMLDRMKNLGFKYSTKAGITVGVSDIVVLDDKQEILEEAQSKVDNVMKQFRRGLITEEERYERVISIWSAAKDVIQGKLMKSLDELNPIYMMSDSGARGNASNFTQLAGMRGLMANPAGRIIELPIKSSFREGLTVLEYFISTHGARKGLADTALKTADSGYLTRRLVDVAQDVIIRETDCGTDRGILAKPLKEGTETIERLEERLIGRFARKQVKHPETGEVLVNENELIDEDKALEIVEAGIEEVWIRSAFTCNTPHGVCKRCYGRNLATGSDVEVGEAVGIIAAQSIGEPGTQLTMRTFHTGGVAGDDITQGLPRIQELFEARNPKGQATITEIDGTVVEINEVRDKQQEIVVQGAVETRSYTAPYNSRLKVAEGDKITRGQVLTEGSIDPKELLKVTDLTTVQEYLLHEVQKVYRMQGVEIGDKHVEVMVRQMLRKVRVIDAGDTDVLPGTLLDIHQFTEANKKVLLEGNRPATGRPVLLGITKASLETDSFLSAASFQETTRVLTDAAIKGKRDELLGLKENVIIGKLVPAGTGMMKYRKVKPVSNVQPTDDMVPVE

binding result: binds
B1: δ subunit (RpoE) of RNA polymerase (natural protein, UniProt P12464 1-173, looked up)
chain: MGIKQYSQEELKEMALVEIAHELFEEHKKPVPFQELLNEIASLLGVKKEELGDRIAQFYTDLNIDGRFLALSDQTWGLRSWYPYDQLDEETQPTVKAKKKKAKKAVEEDLDLDEFEEIDEDDLDLDEVEEELDLEADDFDEEDLDEDDDDLEIEEDIIDEDDEDYDDEEEEIK

Reference: article doi:10.1101/094961 (bioRxiv, 2017)
